Our source for the koff values is PMC8448731 (2021).

This test addresses recombinant RBD (ThermoFisher, RP-87678) (SARS-CoV-2, UniProt P0DTC2 319-541). Put plainly: BLI. A general note: Biolayer interferometry detects binding as a change in optical thickness at a sensor tip.

In general, koff refers to a measure of how fast the partners let go of each other.

B1: GST-tagged SR6v15 (VHH)
VHH: EVQLVESGGGLVQAGDSLRLSCAASGDSYILWRMGWFRQAPGKEREFVAAISLDGQFTNYADSVRGRFSISADSAKYTVYLQMNSLKPEDTAVYYCAALPFLDYWGQGTQVTVSS
Turning to B1, the koff is 0.00175 s⁻¹.
